Laboratory results: patent US20040265961A1 (published 2004)

How the values were obtained:
[1] = test system: T1, hKSR-2-FLAG (full-length human KSR-2 with the FLAG epitope at its carboxyl terminus)
T1 sequence: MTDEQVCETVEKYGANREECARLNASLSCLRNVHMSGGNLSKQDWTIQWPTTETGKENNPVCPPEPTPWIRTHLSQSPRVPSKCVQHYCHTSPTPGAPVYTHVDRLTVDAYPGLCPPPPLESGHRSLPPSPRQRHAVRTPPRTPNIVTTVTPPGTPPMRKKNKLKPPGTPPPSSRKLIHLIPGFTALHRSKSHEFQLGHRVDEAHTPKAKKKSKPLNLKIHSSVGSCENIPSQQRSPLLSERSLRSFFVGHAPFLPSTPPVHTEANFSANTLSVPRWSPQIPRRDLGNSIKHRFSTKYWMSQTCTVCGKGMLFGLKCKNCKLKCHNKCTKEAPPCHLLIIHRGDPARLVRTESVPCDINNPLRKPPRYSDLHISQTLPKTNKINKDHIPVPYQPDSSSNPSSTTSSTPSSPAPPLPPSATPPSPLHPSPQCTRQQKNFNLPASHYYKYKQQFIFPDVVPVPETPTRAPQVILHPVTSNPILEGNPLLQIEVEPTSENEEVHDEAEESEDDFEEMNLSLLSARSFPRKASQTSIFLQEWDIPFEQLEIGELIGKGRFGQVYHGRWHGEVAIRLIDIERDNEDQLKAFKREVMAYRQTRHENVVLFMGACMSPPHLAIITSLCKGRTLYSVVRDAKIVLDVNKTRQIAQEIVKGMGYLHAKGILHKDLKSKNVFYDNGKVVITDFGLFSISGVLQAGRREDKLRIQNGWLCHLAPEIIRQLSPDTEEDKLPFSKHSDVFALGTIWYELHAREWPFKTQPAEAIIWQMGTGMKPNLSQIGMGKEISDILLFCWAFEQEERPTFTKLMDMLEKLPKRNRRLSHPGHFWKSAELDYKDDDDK

[2] = molecular target: T2, hKSR-2-FLAG (full-length human KSR-2 with the FLAG epitope at its carboxyl terminus)
T2 chain: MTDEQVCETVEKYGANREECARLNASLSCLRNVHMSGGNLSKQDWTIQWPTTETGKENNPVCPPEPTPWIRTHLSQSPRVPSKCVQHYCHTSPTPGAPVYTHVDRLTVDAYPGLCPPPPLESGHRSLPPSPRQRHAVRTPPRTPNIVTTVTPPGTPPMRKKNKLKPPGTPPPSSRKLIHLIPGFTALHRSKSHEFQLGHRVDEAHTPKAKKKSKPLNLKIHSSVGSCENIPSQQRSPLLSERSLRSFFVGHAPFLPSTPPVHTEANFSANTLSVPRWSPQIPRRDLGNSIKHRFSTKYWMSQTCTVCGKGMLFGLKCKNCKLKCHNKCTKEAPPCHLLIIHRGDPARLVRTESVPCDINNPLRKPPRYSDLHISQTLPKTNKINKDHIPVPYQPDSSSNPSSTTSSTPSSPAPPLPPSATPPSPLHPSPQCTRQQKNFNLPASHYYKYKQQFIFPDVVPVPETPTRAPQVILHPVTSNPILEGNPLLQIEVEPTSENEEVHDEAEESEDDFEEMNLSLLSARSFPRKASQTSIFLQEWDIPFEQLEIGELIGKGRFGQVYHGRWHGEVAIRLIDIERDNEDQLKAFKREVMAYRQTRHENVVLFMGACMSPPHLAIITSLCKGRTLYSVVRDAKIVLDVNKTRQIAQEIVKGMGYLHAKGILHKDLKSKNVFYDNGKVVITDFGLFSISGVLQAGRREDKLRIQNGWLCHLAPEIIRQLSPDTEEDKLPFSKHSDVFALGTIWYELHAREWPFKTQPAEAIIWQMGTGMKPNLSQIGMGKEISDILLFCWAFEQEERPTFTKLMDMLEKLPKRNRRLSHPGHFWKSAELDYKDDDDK

[3] = molecular target: T3, hKSR-2-FLAG (full-length human KSR-2 with the FLAG epitope at its carboxyl terminus) (human, UniProt Q6VAB6 122-950, limits assumed); test: anti-FLAG immunoprecipitation from KSR-2-FLAG-transfected 293T lysate (about 1 mg protein), Western blot with commercial antibodies
T3 construct: Expressed in 293T cells from pcDNA-DEST-40; Tested in cell lysates, or eluted from anti-FLAG beads with FLAG peptide for the kinase assay
T3 sequence: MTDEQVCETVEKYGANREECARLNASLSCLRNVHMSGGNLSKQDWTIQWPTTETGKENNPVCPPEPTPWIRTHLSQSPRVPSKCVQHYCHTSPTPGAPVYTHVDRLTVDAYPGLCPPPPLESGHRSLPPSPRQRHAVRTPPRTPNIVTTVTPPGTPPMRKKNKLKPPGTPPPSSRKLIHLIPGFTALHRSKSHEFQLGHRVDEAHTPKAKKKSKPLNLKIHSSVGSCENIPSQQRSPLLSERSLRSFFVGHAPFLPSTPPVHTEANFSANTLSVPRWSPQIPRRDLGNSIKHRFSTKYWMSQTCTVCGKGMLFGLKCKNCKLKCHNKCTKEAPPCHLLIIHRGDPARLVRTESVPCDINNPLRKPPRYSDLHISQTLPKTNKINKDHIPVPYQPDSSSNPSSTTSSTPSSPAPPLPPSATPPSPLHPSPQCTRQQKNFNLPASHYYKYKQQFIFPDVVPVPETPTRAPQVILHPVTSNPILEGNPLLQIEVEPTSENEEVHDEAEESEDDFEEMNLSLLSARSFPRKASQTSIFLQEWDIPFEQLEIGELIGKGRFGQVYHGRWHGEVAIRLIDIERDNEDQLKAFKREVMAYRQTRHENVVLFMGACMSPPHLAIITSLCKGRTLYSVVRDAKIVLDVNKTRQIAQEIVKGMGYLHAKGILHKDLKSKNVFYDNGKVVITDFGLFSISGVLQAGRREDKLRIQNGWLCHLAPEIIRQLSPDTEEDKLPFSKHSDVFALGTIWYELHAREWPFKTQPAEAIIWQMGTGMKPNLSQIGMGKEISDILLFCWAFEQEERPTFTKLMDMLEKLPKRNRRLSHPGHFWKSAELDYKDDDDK
Method: To identify proteins that interact with human KSR-2, 293T cells were transfected with KSR-2-FLAG as described above. Cells transfected with FLAG vector alone served as a control. Cells were lysed as described above 48 h posttransfection. Protein concentrations were determined using the BCA protein assay. Cell lysates containing approximately 1 mg protein were subjected to anti-FLAG antibody immunoprecipitation followed by electrophoresis on a 2D gel resolved in only one dimension. The proteins were then transferred to nitrocellulose membranes and probed with various commercially available antibodies (Cell Signaling Technology, Beverly, Mass.) using the MN20SL Miniblotter (Immunetics, Cambridge, Mass.).

With “Raf enzyme (Upstate Biotechnology, Inc.)” the “Raf kinase activity (in vitro kinase assay, 33P phosphorylation of GST-MEK1-His6)” value [1] was “Raf kinase activity was upregulated”.

B1: purified recombinant Cot/Tp12 (protein)
chain: MENLYASEEPAVYEPSLMTMCQDSNQNDERSKSLLLSGQEVPWLSSVRYGTVEDLLAFANHISNTAKHFYGQRPQESGILLNMVITPQNGRYQIDSDVLLIPWKLTYRNIGSDFIPRGAFGKVYLAQDIKTKKRMACKLIPVDQFKPSDVEIQACFRHENIAELYGAVLWGETVHLFMEAGEGGSVLEKLESCGPMREFEIIWVTKHVLKGLDFLHSKKVIHHDIKPSNIVFMSTKAVLVDFGLSVQMTEDVYFPKDLRGTEIYMSPEVILCRGHSTKADIYSLGATLIHMQTGTPPWVKRYPRSAYPSYLYIIHKQAPPLEDIADDCSPGMRELIEASLERNPNHRPRAADLLKHEALNPPREDQPR
For B1, the “Cot/Tp12 kinase activity (in vitro kinase assay, 33P phosphorylation of GST-MEK1-His6)” value [2] was “KSR-2 reduced Cot/Tp12 kinase activity in a dose-dependent manner”.

B2: P.SEK1 (enzyme, UniProt P45985 2-399, looked up)
chain: AAPSPSGGGGSGGGSGSGTPGPVGSPAPGHPAVSSMQGKRKALKLNFANPPFKSTARFTLNPNPTGVQNPHIERLRTHSIESSGKLKISPEQHWDFTAEDLKDLGEIGRGAYGSVNKMVHKPSGQIMAVKRIRSTVDEKEQKQLLMDLDVVMRSSDCPYIVQFYGALFREGDCWICMELMSTSFDKFYKYVYSVLDDVIPEEILGKITLATVKALNHLKENLKIIHRDIKPSNILLDRSGNIKLCDFGISGQLVDSIAKTRDAGCRPYMAPERIDPSASRQGYDVRSDVWSLGITLYELATGRFPYPKWNSVFDQLTQVVKGDPPQLSNSEEREFSPSFINFVNLCLTKDESKRPKYKELLKHPFILMYEERAVEVACYVCKILDQMPATPSSPMYVD
modifications: phosphorylated (sites not given)
notes: Endogenous protein of 293T cells, probed with a commercial antibody; also called phosphorylated SEK1
B2: no binding [3].
